{"source": "patent US20240382561A1", "about": "“GLUCOREGULATORY COMPOUND, COMPOSITION AND USES THEREOF” (THE HONG KONG POLYTECHNIC UNIVERSITY, priority 2021, published 2024)", "molecules": {"B1": {"name": "cysteine rich transmembrane module containing 1 (protein, UniProt Q8K353 1-104, looked up)", "Cysteine-rich and …": "MNPENPPPYPGPGPTAPYPPYPQQPMGPMGPMGAPPPQGYPYPPPQGYPYQGYPQYGWQGGPQEPPKTTVYVVEDQRRDDLGPSTCLTACWTALCCCCLWDMLT", "notes": "recombinant mouse CYSTM1 protein, 104 amino acid long glucoregulatory peptide"}, "B2": {"name": "cysteine rich transmembrane module containing 1 (protein, UniProt Q9H1C7 1-97, looked up)", "Cysteine-rich and …": "MNQENPPPYPGPGPTAPYPPYPPQPMGPGPMGGPYPPPQGYPYQGYPQYGWQGGPQEPPKTTVYVVEDQRRDELGPSTCLTACWTALCCCCLWDMLT", "notes": "human CYSTM1, 97 amino acid long peptide"}}, "key": {"[1]": {"test_system": "diet-induced obesity and diabetes mouse model", "test": "Acute glucose tolerance test after i.p. injection or oral gavage of recombinant CYSTM1 in high-fat diet mice", "format": "in vivo", "conditions": "1 h before GTT, obese mice, vs PBS", "description": "In this example, an acute intraperitoneal (i.p.) glucose tolerance test (GTT) was performed using different administration methods of delivering recombinant CYSTM1 proteins. 8-week-old male C57BL/6J mice fed a high-fat diet for 12 weeks (diet-induced obesity and diabetes mouse model) were treated with different concentrations of CYSTM1 through i.p. injection (FIG. 3A-3C) or oral administration (FIGS. 3D-3F) for 1 h following a GTT by intraperitoneal injections of […]. Circulating CYSTM1 and insulin levels were determined by enzyme-linked immunosorbent assay (ELISA) (ImmunoDiagnostics, Hong Kong), and the glucose level was determined by a glucometer (Roche Diabetes Care, Indianapolis, IN, USA). […] As human and mouse CYSTM1 share high identity (89.4%) and similarity (90.4%), and human CYSTM1 appears to also lower circulating glucose in the db/db mice (a genetic mouse model of obesity and diabetes), it could be expected that human CYSTM1 may also function similarly with respect to human circulating glucose in an obese, diabetic human subject."}, "[2]": {"test_system": "high fat diet-induced obese (HFD) mice", "test": "Chronic daily oral gavage of CYSTM1 in high-fat diet-induced obese mice", "format": "in vivo, mouse", "description": "In this example, 8-week-old male C57BL/6J mice fed with a high-fat diet (HFD) were treated daily with an oral gavage of recombinant CYSTM1 protein (1 mg/kg), and the control group of mice were gavaged with saline daily. CYSTM1 treatment was carried out after 8 weeks of HFD feeding (FIG. 4A)."}, "[3]": {"test_system": "MIN6 cells", "test": "Insulin secretion from MIN6 cells at low and high glucose", "format": "cell-based, mouse", "conditions": "CYSTM1 1-1000 nM, 5.6 mM or 16.7 mM glucose, 45 min", "description": "(§1) FIGS. 6A-6C show the change in insulin secretion from different pancreatic cells in a low (5.6 mM) and high (16.7 mM) glucose level treated by different concentrations of CYSTM1: FIG. 6A: MIN6 cells; FIG. 6B: β-TC-6 cells; FIG. 6C: mouse-isolated pancreatic islets (n=5-6 per cell type);\n(§2) In this example, in vitro assays of insulin secretion in response to CYSTM1 treatment in low and high-glucose environments on the pancreatic cell lines (MIN6 and B-TC-6) and mouse isolated pancreatic islets were performed. Mouse insulinoma, MIN6 cells, were cultured in DMEM (Gibco) supplemented with 10% (v/v) FBS (Lonza), 100 U/mL penicillin and […], and 70 μM freshly added β-mercaptoethanol (Gibco) (37° C., 5% CO2). B-TC-6 cells were grown in RPMI 1640 medium (Gibco) containing 5.5 mM glucose and supplemented with 10% (v/v) FBS, 100 U/mL penicillin and […], and 2 mM L-glutamine. […] Following 45 min incubation of KRB solution, each well was removed and the insulin content of each sample was determined by a mouse insulin ELISA kit. The efficacy of CYSTM1 to stimulate insulin secretion was evaluated in each of the pancreatic cell lines: MIN6 cells (FIG. 6A), B-TC-6 cells (FIG. 6B), and isolated pancreatic islet cells (FIG. 6C)."}, "[4]": {"test_system": "B-TC-6 cells", "test": "Insulin secretion from B-TC-6 cells at low and high glucose", "format": "cell-based", "conditions": "CYSTM1 1-1000 nM, 5.6 mM or 16.7 mM glucose, 45 min", "description": "as §1, §2"}, "[5]": {"test_system": "isolated pancreatic islet cells", "test": "Insulin secretion from mouse isolated pancreatic islets", "format": "cell-based", "conditions": "CYSTM1 1-1000 nM, 5.6 mM then 16.7 mM glucose, 45 min", "description": "as §1, §2"}, "[6]": {"test_system": "MIN6 pancreatic beta cell", "test": "Insulin secretion in MIN6 cells with GLP-1R antagonist exendin (9-39)", "format": "cell-based, mouse", "conditions": "CYSTM1 10 nM, exendin (9-39) 10 nM"}, "[7]": {"test_system": "STZ-induced diabetic male mice", "test": "Daily oral CYSTM1 in STZ-induced diabetic mice", "format": "in vivo, mouse", "conditions": "vs saline", "description": "Turning to FIG. 7J, standard chow diet (STC) mice were injected with streptozotocin (STZ) to induce diabetes for five days and then treated with either CYSTM1 protein (1 mg/kg) or saline daily. The group of mice treated with saline were regarded as the control group."}, "[8]": {"test_system": "3T3-L1 adipocytes", "test": "2-NBDG glucose uptake in 3T3-L1 adipocytes", "format": "cell-based", "conditions": "3T3-L1 adipocytes, CYSTM1 1-1000 nM, 1 h", "description": "(§3) To determine whether CYSTM1 can increase glucose uptake in adipocytes, in vitro assays of 2-NBDG uptake in response to CYSTM1 treatment and potential inhibitors in 3T3-L1 adipocytes and mouse primary adipocytes were performed. 3T3-L1 preadipocytes were maintained in Dulbecco's modified Eagle's medium (DMEM) supplemented with 10% fetal bovine serum. Two days after confluence, 3T3-L1 cells were induced to differentiation using the standard adipogenic cocktail (0.5 mM IBMX, 1 μM dexamethasone and 10 μg/ml insulin) that was applied for 4 days and followed by 10 μg/ml insulin treatment for additional 4 days. The culture medium was changed every other day. The differentiated cells were maintained in normal serum containing DMEM. Mouse primary adipocytes were isolated from 10 to 12-week-old male C57BL/6J mice using a collagenase digestion protocol as described, briefly, white fat pads were removed, minced and digested using collagenase for 60-90 min at 37° C. in Krebs-Ringers phosphate HEPES buffer (KRPH) (15 mM HEPES, pH 7.4, 118 mM NaCl, 4.8 mM KCl, 1.2 mM MgSO4, 1.3 mM CaCl2, 1.2 mM KHPO3, 0.1% BSA). The stromal vascular fraction was separated from the adipocytes and cultured using DMEM and differentiated the same as 3T3-L1 adipocytes as described above. […] NBDG uptake was measured using a fluorescent microplate reader (Thermo Scientific Varioskan LUX Multimode Microplate Reader)."}, "[9]": {"test_system": "mouse primary adipocytes", "test": "2-NBDG glucose uptake in mouse primary adipocytes", "format": "cell-based", "conditions": "mouse primary adipocytes, CYSTM1 1-1000 nM, 1 h", "description": "as §3"}, "[10]": {"test_system": "db/db mice", "test": "Acute glucose tolerance test after i.p. injection of human CYSTM1 in db/db mice", "format": "in vivo, mouse", "conditions": "acute i.p. injection 1 mg/kg BW, vs PBS"}, "[11]": {"conditions": "i.p. injection of CYSTM1 (0.5 and 1 mg/kg BW)"}, "[12]": {"conditions": "oral gavage of CYSTM1 1 mg/kg BW"}}}
{"molecule": "B1", "values": [{"measurement": "circulating insulin", "setting": "[1]; [11]", "result": "increase circulating insulin"}, {"measurement": "glucose levels (GTT)", "setting": "[1]; [11]", "result": "lower glucose levels"}, {"measurement": "circulating insulin", "setting": "[1]; [12]", "result": "increase circulating insulin"}, {"measurement": "glucose levels (GTT)", "setting": "[1]; [12]", "result": "lower glucose levels"}, {"measurement": "feeding blood glucose level", "setting": "[2]; 1 mg/kg oral gavage once daily, HFD mice, vs saline", "result": "significantly reduced feeding blood glucose level"}, {"measurement": "fasting insulin concentration", "setting": "[2]; day 10, 1 mg/kg oral gavage once daily, HFD mice, vs saline", "result": "decreased level of fasting insulin concentration"}, {"measurement": "glucose homeostasis by IPGTT", "setting": "[2]; day 20, 1 mg/kg oral gavage once daily, vs control HFD-fed mice", "result": "better glucose homeostasis"}, {"measurement": "insulin secretion", "setting": "[3]", "result": "concentration-dependent increase in insulin secretion"}, {"measurement": "insulin secretion", "setting": "[4]", "result": "concentration-dependent increase in insulin secretion"}, {"measurement": "insulin secretion", "setting": "[5]", "result": "concentration-dependent increase in insulin secretion"}, {"measurement": "insulin secretion induced by CYSTM1 in presence of exendin (9-39)", "setting": "[6]", "result": "not affected by the presence of exendin (9-39)"}, {"measurement": "feeding blood glucose level", "setting": "[7]; 1 mg/kg oral daily", "result": "significantly lower feeding blood glucose level"}, {"measurement": "glucose regulation by IPGTT", "setting": "[7]; day 15, 1 mg/kg oral daily", "result": "protects from STZ-induced glucose dysregulation"}, {"measurement": "glucose (2-NBDG) uptake", "setting": "[8]", "result": "concentration-dependent increase"}, {"measurement": "glucose (2-NBDG) uptake", "setting": "[9]", "result": "concentration-dependent increase"}]}
{"molecule": "B2", "values": [{"measurement": "glucose levels (GTT)", "setting": "[10]", "result": "lower glucose levels"}]}
